Laboratory results reported in PMC8340551 (The Journal of Cell Biology, 2021).

Molecular target: T1, FHL2-Flag (UniProt Q14192 1-279)
T1 sequence (looked up): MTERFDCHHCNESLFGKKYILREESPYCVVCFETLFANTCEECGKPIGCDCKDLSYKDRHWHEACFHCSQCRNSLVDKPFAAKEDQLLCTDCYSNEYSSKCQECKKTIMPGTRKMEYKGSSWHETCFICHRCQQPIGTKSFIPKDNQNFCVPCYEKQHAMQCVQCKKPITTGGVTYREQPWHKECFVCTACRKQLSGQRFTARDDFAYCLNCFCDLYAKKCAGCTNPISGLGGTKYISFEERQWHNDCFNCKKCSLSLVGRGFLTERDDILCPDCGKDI
Assay: co-IP

B1: Myc-TRAK1 (Myc-TRAK1^WT) (natural protein, UniProt Q9UPV9 1-953, looked up)
chain: MALVFQFGQPVRAQPLPGLCHGKLIRTNACDVCNSTDLPEVEIISLLEEQLPHYKLRADTIYGYDHDDWLHTPLISPDANIDLTTEQIEETLKYFLLCAERVGQMTKTYNDIDAVTRLLEEKERDLELAARIGQSLLKKNKTLTERNELLEEQVEHIREEVSQLRHELSMKDELLQFYTSAAEESEPESVCSTPLKRNESSSSVQNYFHLDSLQKKLKDLEEENVVLRSEASQLKTETITYEEKEQQLVNDCVKELRDANVQIASISEELAKKTEDAARQQEEITHLLSQIVDLQKKAKACAVENEELVQHLGAAKDAQRQLTAELRELEDKYAECMEMLHEAQEELKNLRNKTMPNTTSRRYHSLGLFPMDSLAAEIEGTMRKELQLEEAESPDITHQKRVFETVRNINQVVKQRSLTPSPMNIPGSNQSSAMNSLLSSCVSTPRSSFYGSDIGNVVLDNKTNSIILETEAADLGNDERSKKPGTPGTPGSHDLETALRRLSLRRENYLSERRFFEEEQERKLQELAEKGELRSGSLTPTESIMSLGTHSRFSEFTGFSGMSFSSRSYLPEKLQIVKPLEGSATLHHWQQLAQPHLGGILDPRPGVVTKGFRTLDVDLDEVYCLNDFEEDDTGDHISLPRLATSTPVQHPETSAHHPGKCMSQTNSTFTFTTCRILHPSDELTRVTPSLNSAPTPACGSTSHLKSTPVATPCTPRRLSLAESFTNTRESTTTMSTSLGLVWLLKERGISAAVYDPQSWDRAGRGSLLHSYTPKMAVIPSTPPNSPMQTPTSSPPSFEFKCTSPPYDNFLASKPASSILREVREKNVRSSESQTDVSVSNLNLVDKVRRFGVAKVVNSGRAHVPTLTEEQGPLLCGPPGPAPALVPRGLVPEGLPLRCPTVTSAIGGLQLNSGIRRNRSFPTMVGSSMQMKAPVTLTSGILMGAKLSKQTSLR
modifications: O-GlcNAc on serine and threonine residues (sites not given), more with co-expressed OGT, less with co-expressed OGA
Question: Which “fold more co-precipitated with OGT overexpression than with OGA overexpression” value does the source give for B1 here?
Answer: The value was 5 fold.
